Experimental findings from patent US20050227289A1 (published 2005) are described below.

T1: soluble EpoR (EposR), soluble recombinant human erythropoietin receptor (human) (UniProt P19235)
T1 sequence (looked up): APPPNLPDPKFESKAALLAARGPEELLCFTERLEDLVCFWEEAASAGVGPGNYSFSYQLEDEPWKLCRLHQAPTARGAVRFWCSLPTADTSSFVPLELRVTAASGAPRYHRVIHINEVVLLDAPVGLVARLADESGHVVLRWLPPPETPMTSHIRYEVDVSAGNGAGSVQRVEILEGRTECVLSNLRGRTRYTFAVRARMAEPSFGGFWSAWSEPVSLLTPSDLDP

T2: human erythropoietin receptor (EpoR) on UT-7/Epo cells (human, UniProt P19235 25-508)
T2 sequence (looked up): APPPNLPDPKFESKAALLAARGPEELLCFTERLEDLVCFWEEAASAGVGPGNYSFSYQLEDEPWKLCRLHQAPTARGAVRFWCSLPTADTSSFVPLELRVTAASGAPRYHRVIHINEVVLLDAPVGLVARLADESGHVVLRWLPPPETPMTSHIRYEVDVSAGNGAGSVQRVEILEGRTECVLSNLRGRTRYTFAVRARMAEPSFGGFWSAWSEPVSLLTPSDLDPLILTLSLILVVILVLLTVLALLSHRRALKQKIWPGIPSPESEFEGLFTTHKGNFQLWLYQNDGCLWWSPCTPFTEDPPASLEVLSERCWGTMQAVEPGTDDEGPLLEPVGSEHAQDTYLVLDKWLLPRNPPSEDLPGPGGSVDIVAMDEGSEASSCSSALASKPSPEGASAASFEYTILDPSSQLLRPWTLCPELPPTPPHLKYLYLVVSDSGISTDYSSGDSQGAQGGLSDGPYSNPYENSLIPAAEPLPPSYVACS

T3: soluble EpoR (EposR), soluble recombinant human erythropoietin receptor (human, UniProt P19235 25-250, limits assumed)
T3 construct: Called only 'soluble EpoR (EposR)'
T3 sequence (looked up): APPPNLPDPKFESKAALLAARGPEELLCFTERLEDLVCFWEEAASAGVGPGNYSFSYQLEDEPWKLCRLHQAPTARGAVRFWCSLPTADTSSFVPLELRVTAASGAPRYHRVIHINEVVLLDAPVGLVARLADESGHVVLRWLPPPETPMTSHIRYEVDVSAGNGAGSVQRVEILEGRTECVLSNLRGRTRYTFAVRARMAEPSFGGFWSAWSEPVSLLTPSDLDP

B1: Ab12 41/WT (scFv, part only; not given: display fusion parts and tags, part only)
scFv fusion displayed on yeast, part: GENKVEYAPALMALSQVQLQESGPGLVKPSETLSLTCTVSGASISSYYWSWIRQPPGKGLEWIGYIYYSGSTNYNPSLKSRVTISVDTSKNQFSLKLRSVTAADTAVYYCARERLGIGDYWGQGTLVTVSSGGGGSGGGGSGGGGSDIQLTQSPSSLSASVGDRVTITCRASQGIRNDLGWYQQKPGKAPKRLIYAASSLQSGVPSRFSGSGSGTEFTLTISSLQPEDFATYYCLQHNTYPPTFGQGTKVEIK
B2: Ab12 IgG2/K (antibody, V domains shown)
VH: QVQLQESGPGLVKPSETLSLTCTVSGASISSYYWSWIRQPPGKGLEWIGYIYYSGSTNYNPSLKSRVTISVDTSKNQFSLKLRSVTAADTAVYYCARERLGIGDYWGQGTLVTVSS
VL: DIQLTQSPSSLSASVGDRVTITCRASQGIRNDLGWYQQKPGKAPKRLIYAASSLQSGVPSRFSGSGSGTEFTLTISSLQPEDFATYYCLQHNTYPPTFGQGTKVEIK
B3: Ab12.120 (antibody, IgG2, V domains shown)
VH: QVQLQESGPGLVKPSETLSLTCTVSGASISSYYWSWIRQPPGKGLEWIGYIYYEGSTNYNPSLKSRVTISVDTSKNQFSLKLRSVTAADTAVYYCARERLGIGDYWGQGTLVTVSS
VL: DIQLTQSPSSLSASVGDRVTITCRASQGIRNDLGWYQQKPGKAPKRLIYAASSLQSGVPSRFSGSGSGTEFTLTISSLQPEDFATYYCLQHNTYPPTFGQGTKVEIK
B4: Ab12.122 (antibody, IgG2, V domains shown)
VH: QVQLQESGPGLVKPSETLSLTCTVSGASISSYYWSWIRQPPGKGLEWIGYIYGEGSTNYNPSLKSRVTISVDTSKNQFSLKLRSVTAADTAVYYCARERLGIGDYWGQGTLVTVSS
VL: DIQLTQSPSSLSASVGDRVTITCRASQGIRNDLGWYQQKPGKAPKRLIYAASSLQSGVPSRFSGSGSGTEFTLTISSLQPEDFATYYCLQHNTYPPTFGQGTKVEIK
B5: Ab12.56 (antibody, V domains shown)
VH: QVQLQESGPGLVKPSETLSLTCTVSGASISSYYWSWIRQPPGKGLEWIGYIAGTGSTNYNPSLKSRVTISVDTSKNQFSLKLRSVTAADTAVYYCARERLGIGDYWGQGTLVTVSS
VL: DIQLTQSPSSLSASVGDRVTITCRASQGIRNDLGWYQQKPGKAPKRLIYAASSLQSGVPSRFSGSGSGTEFTLTISSLQPEDFATYYCLQHNTYPPTFGQGTKVEIK
B6: Ab12.121 (antibody, IgG2, V domains shown)
VH: QVQLQESGPGLVKPSETLSLTCTVSGASISSYYWSWIRQPPGKGLEWIGYIGGSGSTNYNPSLKSRVTISVDTSKNQFSLKLRSVTAADTAVYYCARERLGIGDYWGQGTLVTVSS
VL: DIQLTQSPSSLSASVGDRVTITCRASQGIRNDLGWYQQKPGKAPKRLIYAASSLQSGVPSRFSGSGSGTEFTLTISSLQPEDFATYYCLQHNTYPPTFGQGTKVEIK
B7: Ab12.6 (antibody, V domains shown)
VH: QVQLQESGPGLVKPSETLSLTCTVSGASISSYYWSWIRQPPGKGLEWIGYIGGEGSTNYNPSLKSRVTISVDTSKNQFSLKLRSVTAADTAVYYCARERLGIGDYWGQGTLVTVSS
VL: DIQLTQSPSSLSASVGDRVTITCRASQGIRNDLGWYQQKPGKAPKRLIYAASSLQSGVPSRFSGSGSGTEFTLTISSLQPEDFATYYCLQHNTYPPTFGQGTKVEIK
B8: Ab12.123 (antibody, IgG2, V domains shown)
VH: QVQLQESGPGLVKPSETLSLTCTVSGASISSYYWSWIRQPPGKGLEWIGYIGYEGSTNYNPSLKSRVTISVDTSKNQFSLKLRSVTAADTAVYYCARERLGIGDYWGQGTLVTVSS
VL: DIQLTQSPSSLSASVGDRVTITCRASQGIRNDLGWYQQKPGKAPKRLIYAASSLQSGVPSRFSGSGSGTEFTLTISSLQPEDFATYYCLQHNTYPPTFGQGTKVEIK
B9: Ab12.118 (antibody, IgG2, V domains shown)
VH: QVQLQESGPGLVKPSETLSLTCTVSGASISSYYWSWIRQPPGKGLEWIGYIGYSGSTNYNPSLKSRVTISVDTSKNQFSLKLRSVTAADTAVYYCARERLGIGDYWGQGTLVTVSS
VL: DIQLTQSPSSLSASVGDRVTITCRASQGIRNDLGWYQQKPGKAPKRLIYAASSLQSGVPSRFSGSGSGTEFTLTISSLQPEDFATYYCLQHNTYPPTFGQGTKVEIK
B10: Ab12.119 (antibody, IgG2, V domains shown)
VH: QVQLQESGPGLVKPSETLSLTCTVSGASISSYYWSWIRQPPGKGLEWIGYIYGSGSTNYNPSLKSRVTISVDTSKNQFSLKLRSVTAADTAVYYCARERLGIGDYWGQGTLVTVSS
VL: DIQLTQSPSSLSASVGDRVTITCRASQGIRNDLGWYQQKPGKAPKRLIYAASSLQSGVPSRFSGSGSGTEFTLTISSLQPEDFATYYCLQHNTYPPTFGQGTKVEIK
B11: Ab12 41/34 (scFv)
scFv: QVQLQESGPGLVKPSETLSLTCTVSGASISSYYWSWIRQPPGKGLEWIGYIYYSGSTNYNPSLKSRVTISVDTSKNQFSLKLRSVTAADTAVYYCARERLGIGDYWGQGTLVTVSSGHEAAAVMQVQYPASDIQLTQSPSSLSASVGDRVTITCRASQGIRNDLGWYQQKPGKAPKRLIYAASSLQSGVPSRFSGSGSGTEFTLTISSLQPEDFATYYCLQHNTYPPTFGQGTKVEIK
notes: not shown: Aga2/Xpress display part of pYD1 before the tether, and the C-terminal V5 and His tags
B12: Ab12 WT/WT (scFv)
scFv: QVQLQESGPGLVKPSETLSLTCTVSGASISSYYWSWIRQPPGKGLEWIGYIYYSGSTNYNPSLKSRVTISVDTSKNQFSLKLRSVTAADTAVYYCARERLGIGDYWGQGTLVTVSSGGGGSGGGGSGGGGSDIQLTQSPSSLSASVGDRVTITCRASQGIRNDLGWYQQKPGKAPKRLIYAASSLQSGVPSRFSGSGSGTEFTLTISSLQPEDFATYYCLQHNTYPPTFGQGTKVEIK
notes: as for B11

The first test addresses T1, soluble EpoR (EposR), soluble recombinant human erythropoietin receptor (human). Kind of test: equilibrium titration of soluble EpoR on yeast-displayed scFv at 37 C, flow cytometry, detection with MAB307 + anti-mouse RPE.
In the case of B1, the EC50 (read off the curve) stood at 6 nM and the Kd stood at 5 nM.

In a further test the target is T2, human erythropoietin receptor (EpoR) on …. Kind of test: cell-based or functional assay.
Regarding B2, the “Emax (cell proliferation, absorbance)” value came out at 1.98 absorbance.

As to B3, the “Emax (cell proliferation, absorbance)” value turned out to be 2 absorbance.

Regarding B4, the “Emax (cell proliferation, absorbance)” value was determined as 2.4 absorbance.

As for B5, the “Emax (cell proliferation, absorbance)” value amounted to 2.51 absorbance.

For the molecule B6, the “Emax (cell proliferation, absorbance)” value was determined as 2.3 absorbance.

As for B7, the “Emax (cell proliferation, absorbance)” value amounted to 2.81 absorbance.

As for B8, the “Emax (cell proliferation, absorbance)” value amounted to 2.7 absorbance.

On to B9, for which the “Emax (cell proliferation, absorbance)” value came to 2.65 absorbance.

With B10, the “Emax (cell proliferation, absorbance)” value worked out at 2.53 absorbance.

The target in another test is T3, soluble EpoR (EposR), soluble …. In words: equilibrium titration of soluble EpoR on yeast-displayed scFv at 37 C, flow cytometry, detection with MAB307 + anti-mouse RPE. The text has this: FIG. 2 is a graph showing equilibrium binding of soluble EpoR with various Ab12 scFv constructs expressed on the surface of yeast cells. In FIG. 2, -▪- represents an Ab12 scFv construct comprising a Gly/Ser linker (WT), […] (SEQ ID NO:1) in both the tether and scFv linker positions, -●- represents an […] comprising linker 41, GENKVEYAPALMALS (SEQ ID NO:2) in the tether position and the Gly/Ser linker (WT) (SEQ ID NO:1) in the scFv linker position, -▴- represents an Ab12 scFv construct comprising linker 41 (SEQ ID NO:2) in the tether position and linker 40, […] (SEQ ID NO:3) in the scFv linker position, and -▾- represents an Ab12 scFv construct comprising linker 41 (SEQ ID NO:2) in the tether position and linker 34, […] (SEQ ID NO:4) in the scFv linker position.
Various single stranded oligonucleotides encoding Ab12 scFvs were co-transformed with a linearized “gapped” vector derived from pYD1 (Invitrogen, Carlsbad, Calif.) into yeast by techniques well known to practitioners in the art. Cell surface protein expression was compared by incubating the transformed yeast with increasing concentrations of soluble EpoR (EposR) at 37° C. (FIG. 2). Bound antigen was detected using a monoclonal antibody to EpoR, MAB307 obtained commercially from R and D Systems (Minneapolis, Minn.) followed by anti-mouse phycoerythrin (PE, Southern Biotech, Birmingham, Ala.). […]
On to B11, for which the dissociation constant (Kd) came out at 8.5 nM.

Take B12: the Kd is 9 nM.
